Experimental data published in patent publication EP1724347A2.

Key:
protein kinase A [1] = assay: method not stated
protein kinase A [2] = assay: cell-based or functional assay
[3] = biological target: GST-hDM2 (residues 1-188) (human) (UniProt Q00987); assay: 400 nM GST-hDM2 and 10 nM p53AD-Flu in the absence of pZutshi
[4] = biological target: GST-hDM2 (residues 1-188) (human) (UniProt Q00987); assay: fluorescence polarization, 25 nM labeled peptide with varying GST-hDM2, 4°C
[5] = biological target: GST-hDM2 (residues 1-188) (human) (UniProt Q00987); assay: fluorescence polarization, competition format
GST-KIX = assay: fluorescence polarization
Chain of GST-KIX (P45481 586-665): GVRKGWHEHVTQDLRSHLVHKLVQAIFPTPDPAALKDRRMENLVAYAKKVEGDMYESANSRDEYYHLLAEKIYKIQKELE

Chain of GST-hDM2 (residues 1-188) (human) (Q00987 1-188): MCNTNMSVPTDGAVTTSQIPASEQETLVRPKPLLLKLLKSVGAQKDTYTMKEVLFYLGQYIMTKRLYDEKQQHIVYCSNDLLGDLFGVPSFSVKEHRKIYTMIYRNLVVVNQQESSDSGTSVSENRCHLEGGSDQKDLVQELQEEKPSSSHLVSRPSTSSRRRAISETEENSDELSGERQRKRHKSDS

Substance: PKI (peptide)
- Kd (protein kinase A [1]): 0.0312 µM
- IC50 (inhibition of PKA) (protein kinase A [2]): 0.008 µM

Substance: p53AD-Flu (peptide)
- percent bound [3]: 60%
- Kd [4]: 0.261 µM

Substance: p53AD peptide (residues 15-33), not labeled
- Kd [5]: 1200 µM

Substance: Phosphorylated KID20 (peptide)
- Kd (GST-KIX): 48 µM

Substance: Phosphorylated KID31 (peptide)
- Kd (GST-KIX): 1.2 µM
